{"source": "ChEMBL document CHEMBL1153321", "about": "“Approaches to the simultaneous inactivation of metallo- and serine-beta-lactamases” (Bioorg Med Chem Lett, 2009)", "proteins": {"B1": {"name": "Beta-lactamase (Enterobacter cloacae), P05364 (protein)", "chain": "MMRKSLCCALLLGISCSALATPVSEKQLAEVVANTITPLMKAQSVPGMAVAVIYQGKPHYYTFGKADIAANKPVTPQTLFELGSISKTFTGVLGGDAIARGEISLDDAVTRYWPQLTGKQWQGIRMLDLATYTAGGLPLQVPDEVTDNASLLRFYQNWQPQWKPGTTRLYANASIGLFGALAVKPSGMPYEQAMTTRVLKPLKLDHTWINVPKAEEAHYAWGYRDGKAVRVSPGMLDAQAYGVKTNVQDMANWVMANMAPENVADASLKQGIALAQSRYWRIGSMYQGLGWEMLNWPVEANTVVEGSDSKVALAPLPVAEVNPPAPPVKASWVHKTGSTGGFGSYVAFIPEKQIGIVMLANTSYPNPARVEAAYHILEALQ"}}, "conditions_in_all_cases": "Enterobacter cloacae", "key": {"[1]": {"substrate": "CC(=O)OCC1=C(C(=O)O)N2C(=O)[C@@H](NO)[C@H]2SC1"}, "[2]": {"substrate": "CC1=C(C(=O)O)N2C(=O)/C(=N/O)[C@H]2S(=O)(=O)C1"}, "[3]": {"substrate": "CC(=O)OCC1=C(C(=O)O)N2C(=O)[C@@H](N(O)C=O)[C@H]2SC1"}, "[4]": {"substrate": "CC(=O)OCC1=C(C(=O)O)N2C(=O)/C(=N/O)[C@H]2S(=O)(=O)C1"}, "[5]": {"substrate": "CC(=O)OCC1=C(C(=O)O)N2C(=O)[C@@H](NC(=O)Cc3cccs3)[C@H]2SC1"}, "[6]": {"substrate": "CC(=O)OCC1=C(C(=O)O)N2C(=O)[C@@H](N(O)C(=O)Cc3ccccc3)[C@H]2SC1"}, "[7]": {"substrate": "CC(=O)OCC1=C(C(=O)O)N2C(=O)[C@@H](N)[C@H]2SC1"}, "[8]": {"substrate": "CC(=O)OCC1=C(C(=O)O)N2C(=O)/C(=N/O)[C@H]2SC1"}, "[9]": {"substrate": "CC(=O)OCC1=C(C(=O)O)N2C(=O)[C@@H](NC=O)[C@H]2SC1"}}, "data": [{"protein": "B1", "values": [{"measurement": "Km", "setting": "[1]", "result": 1450, "unit": "µM"}, {"measurement": "kcat", "setting": "[1]", "result": 1.6, "unit": "s⁻¹"}, {"measurement": "Km", "setting": "[2]", "result": 4.5, "unit": "µM"}, {"measurement": "kcat", "setting": "[2]", "result": 0.54, "unit": "s⁻¹"}, {"measurement": "Km", "setting": "[3]", "result": 240, "unit": "µM"}, {"measurement": "kcat", "setting": "[3]", "result": 0.32, "unit": "s⁻¹"}, {"measurement": "Km", "setting": "[4]", "result": "> 200", "unit": "µM"}, {"measurement": "Km", "setting": "[5]", "result": 15.4, "unit": "µM"}, {"measurement": "kcat", "setting": "[5]", "result": 690, "unit": "s⁻¹"}, {"measurement": "Km", "setting": "[6]", "result": 5, "unit": "µM"}, {"measurement": "kcat", "setting": "[6]", "result": 0.49, "unit": "s⁻¹"}, {"measurement": "Km", "setting": "[7]", "result": 290, "unit": "µM"}, {"measurement": "kcat", "setting": "[7]", "result": 0.46, "unit": "s⁻¹"}, {"measurement": "Km", "setting": "[8]", "result": 366, "unit": "µM"}, {"measurement": "kcat", "setting": "[8]", "result": 2.56, "unit": "s⁻¹"}, {"measurement": "Km", "setting": "[9]", "result": 315, "unit": "µM"}, {"measurement": "kcat", "setting": "[9]", "result": 1180, "unit": "s⁻¹"}]}]}
